This is an account of results in article PMC4132743 (Nucleic Acids Research, 2014).

For the data set, the target named is T1, DnaT Y127A/W128A (Escherichia coli K12, UniProt P0A8J2 1-179, Y127A;W128A).
T1 sequence: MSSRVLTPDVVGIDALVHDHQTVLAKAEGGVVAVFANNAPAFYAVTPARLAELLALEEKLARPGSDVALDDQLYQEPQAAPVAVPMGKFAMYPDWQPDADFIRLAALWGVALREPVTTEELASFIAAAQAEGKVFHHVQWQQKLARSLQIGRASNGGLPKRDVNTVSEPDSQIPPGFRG
In words: fluorescence polarization; almost no detectable binding; Buffer A: 20 mM Tris-HCl pH 7.5, 40 mM NaCl, 5% v/v glycerol, 20 C; FPA 200 nM 5'-FAM DNA, Hill fit; EMSA 30 min at 20 C, gels in 0.5x TBE at 4 C. The settings on record: protein: recombinant; tags: His-MBP removed by TEV; label: 5'-FAM.

TTTTTTTTTTTTTTTTTTTTTTTTTTTTTT (ssDNA) [5F-dT30]: the binding result is “no binding”.
